Data on 14 molecules can be found in patent US20110293610A1 (published 2011).

Assay [1] has as its target T1, biotinylated B Lymphocyte Stimulator, soluble form (human, UniProt Q9Y275 134-285, biotinylated with NHS-biotin, molar ratio 20:1 biotin:protein).
T1 construct: also called bio-B Lymphocyte Stimulator; free B Lymphocyte Stimulator
Put plainly: phage scFv, receptor binding inhibition on IM9 cells. The protocol:
Fifty-five μl of each appropriate phage supernatant was added to each well and the final volume in each well was 65 μl. Plates were then incubated at room temperature for 30 minutes.
Plates were washed three times in PBST and three times in PBS, tapped dry and 50 μl of streptavidin-Delfia (Wallac) was added to each well at 1:1000 dilution in the Manufacturer's assay buffer. The plates were then incubated at room temperature for 1 hour and washed six times in Delfia wash solution (Wallac). After tapping the plates dry, 100 μl per well of Delfia enhancement solution (Wallac) was added. The plates were gently tapped to encourage micelle formation, incubated at room temperature for 10 minutes, and fluorescence read on a Wallac 1420 workstation at […].

The target in another assay is T2, TNF-alpha (human, UniProt P01375 77-233).
T2 construct: also called TNFα; TNF-α
Put plainly: phage ELISA. In general terms: An ELISA detects its analyte on a solid surface through an enzyme-linked reagent.

For a further assay, the target named is T3, TNF-beta (human, UniProt P01374 35-205).
T3 construct: also called TNFβ; Tumour Necrosis Factor-beta
T3 sequence (looked up): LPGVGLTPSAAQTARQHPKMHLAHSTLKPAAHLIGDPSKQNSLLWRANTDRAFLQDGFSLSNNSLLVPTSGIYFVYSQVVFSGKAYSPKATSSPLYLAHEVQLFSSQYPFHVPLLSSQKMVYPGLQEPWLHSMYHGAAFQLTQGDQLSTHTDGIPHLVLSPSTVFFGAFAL
Put plainly: phage ELISA.

Assay [2] has as its target T4, membrane-bound B Lymphocyte Stimulator on U937 plasma membrane preparations (human, UniProt Q9Y275 1-285).
T4 construct: Natural protein in plasma membrane fractions of the human cell line U937 coated on ELISA plates; also called U937 plasma membranes; U937 membranes
Put plainly: phage ELISA.

A further assay addresses T5, Fas ligand (human, UniProt P48023 134-281, limits assumed).
T5 sequence (looked up): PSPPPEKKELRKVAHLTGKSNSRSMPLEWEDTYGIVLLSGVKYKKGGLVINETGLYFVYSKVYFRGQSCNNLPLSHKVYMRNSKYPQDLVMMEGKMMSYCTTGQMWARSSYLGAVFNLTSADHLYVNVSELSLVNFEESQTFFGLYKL
In words: phage ELISA.

The target of another assay is T6, TRAIL (human, UniProt P50591 114-281).
T6 construct: also called TNF-related apoptosis inducing ligand
Put plainly: phage ELISA.

Assay [3] concerns the target T7, B Lymphocyte Stimulator, soluble form (human) (human, UniProt Q9Y275 134-285, biotinylated with NHS-biotin where used as biotinylated B Lymphocyte Stimulator).
T7 construct: Coated on plastic, captured on streptavidin plates, amine-coupled to a CM5 chip or free in solution, depending on the assay; also called BLyS; immobilized B Lymphocyte Stimulator
In words: phage competition ELISA.

T2 sequence (P01375 77-233 limits assumed): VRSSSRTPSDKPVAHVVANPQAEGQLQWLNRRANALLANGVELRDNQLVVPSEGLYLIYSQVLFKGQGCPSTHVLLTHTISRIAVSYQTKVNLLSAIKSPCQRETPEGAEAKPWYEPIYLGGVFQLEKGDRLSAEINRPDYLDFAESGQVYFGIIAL
T6 sequence (P50591 114-281 limits assumed): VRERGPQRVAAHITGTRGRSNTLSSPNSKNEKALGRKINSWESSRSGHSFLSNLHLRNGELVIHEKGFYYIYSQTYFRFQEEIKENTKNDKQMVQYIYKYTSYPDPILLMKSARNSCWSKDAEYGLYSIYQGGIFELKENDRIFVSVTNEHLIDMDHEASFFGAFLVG

B1: I029D07 (scFv)
scFv: QVQLQQSGAEVKKPGSSVKVSCKASGYTFTKYTMHWVRQAPGQGPEWMGWINGGSGDTKYSRKFQGRVTITKDTSASAAYMELSSLGSEDTALYYCARATYDPLTGYSFDGFDIWGQGTLVTVSSGGGGSGGGGSGGGGSQSVLTQPASVSGSPGQSITISCTGTSSDVGGYNYVSWYQQHPGKAPKLMIYDVSKRPSGVPDRFSGSKSGNTASLTISGLQAEDEGDYYCSSYAGPSRVFGGGTKVEIKR
For the molecule B1, in assay [1], the binding result was “binds”.

B2: I050A12 (scFv)
scFv: EVQLVQSGAEVKKPGSSVKVSCKASGDTFSHYAINWVRQAPGQGLEWMGGIIPTFNAVKYAQKFQGRATITADGSTSTAYMELNSLRSEDTAVYYCATAPYDLLTHYFHYFDYWGQGTMVTVSSGGGGSGGGGSGGGGSALSSELTQDPAVSVTLGQTVRITCQGDSLRSYYPSWYQQKPGQAPVLVIYPKNIRPSGIPDRFSGSSSGNTASLTITGAQAEDEADYYCNSRASSGNHYVFATGTKLTVLG
Regarding B2, the binding result in the assay with TNF-alpha is on record as “no binding”; with TNF-beta, “no binding”; in assay [2], “binds”; with Fas ligand, “no binding”; in the assay with TRAIL it was “no binding”; in assay [3] it was “binds”.

B3: I051C04 (scFv)
scFv: QVQLQQSGAEVKKPGSSVKVSCRTSGGTFSNYGLSWVRQAPGQGLEWMGGVIPISSTIKYGQKFQDRLTIAADDLTNTTFMELSSLRPEDTAVYYCARAATTSQKHNKYAYYFYGMDVWGQGTMVTVSSGGGGSGGGGSGGGGSAQSALTQPASVSGSPGQSITISCTGTSSDVGGYNYVSWYQQHPGKAPKLMIYEVSNRPSGVSNRFSGSKSGNTASLTISGLQAEDEADYYCSSYTSSSTLVFGGGTKVTVLG
notes: also called 1051C04
With B3, the binding result with TNF-alpha was “no binding”; with TNF-beta, “no binding”; in assay [2], “binds”; with Fas ligand it was “no binding”; in the assay with TRAIL, “no binding”; in assay [3] it was “binds”.

B4: I007H08 (scFv)
scFv: QVQLQQSGPGLVKPSQILSLTCAISGDSVASNGAAWNWIRQSPSRGLEWLGRTYYRSKWYVDYAVSVKSRITINPDTSKNQFSLQLNSVTPEDTAVYYCARDRYDILTGYYYYGMDVWGQGTMVTVSSGGGGSGGGGSGGGGSQSALTQPASVSGSRGQSITISCTGTTGDVGGYDYVSWYQQHPGKAPKLLIYGNSNRPSGVPDRFSASKSGNTASLTISGLQAEDEADYFCNTYAPPGIIMFGGGTKLTVLG
Turning to B4, in assay [1], the binding result is recorded as “binds”.

B5: I008A11 (scFv)
scFv: QVQLQQSGPGLVKPSQILSLTCAISGDSVASNGAAWNWIRQSPSRGLEWLGRTYYRSKWYVDYAVSVKSRITINPDTSKNQFSLQLNSVTPEDTAVYYCARDRYDILTGYYYYGMDVWGQGTMVTVSSGGGGSGGGGSGGGGSQSALTQPASVSGSRGQSITISCTGTTGDVGGYDYVSWYQQHPGKAPKLLIYGNSNRPSGVPDRFSASKSGNTASLTISGLQAEDEADYFCSTYAPPGIIMFGGGTKLTVLG
On to B5, for which the binding result in assay [1] is “binds”.

B6: I061E07 (scFv)
scFv: QVQLQQSGAEVKKTGASVKVSCKASGYIFADYYVHWVRQAAGQGLEWMGWINPNTGSTKYAQKFQDRVTMTRDTSIKTVYMELRRLRSDDTALYYCARATYDPLTGYSFDGFDIWGKGTMVTVSSGGGGSGGGGSGGGGSQSVLTQPPSASGTPGQRVTISCSGSSSNIGSNTVNWYQRLPGAAPQLLIYNNDQRPSGIPDRFSGSKSGTSGSLVISGLQSEDEADYYCASWDDSLNGRVFGGGTKLTVLG
On to B6, for which the binding result in assay [1] was “binds”.

B7: I008C03 (scFv)
scFv: QMQLVRSGGGVVQPGRSLRLSCAASGFTFSSYGMHWVRQAPGKGLEWVSVTYSGGNTNYADSVRGRFTISRDNSKNTLYLQMNSLRAEDTAVYYCAREGSYDILTGYYVGVGRMDVWGKGTLVTVSSGGGGSGGGGSGGGGSSELTQDPAVSVALGQTVRITCQGDSLRSYYTNWFQQKPGQAPLLVVYAKNKRPSGIPDRFSGSSSGNTASLTITGAQAEDEADYYCNSRDSSGNHVVFGGGTKLTVLG
As to B7, the binding result in assay [1] is recorded as “binds”.

B8: I031C03 (scFv)
scFv: QMQLVQSGAEVRKPGSSVKVSCKASGGSFSSHVFSWVRQAPGQGLEWVGGITPKFATPNYAQKFQHRVTITADELTRTVFMDLSGLRSEDTAVYYCARGYDSSAFRAFDIWGQGTLVTVSSGGGGSGGGGSGGGGSAQSVLTQPPSVSAAPGQKVTISCSGSSSNIGNNYVSWYQQFPGTAPKLLIYDNNNRPSGVPDRFSGSKSGTSATLGITGLQTGDEADYYCGTWDRSLSVVVFGGGTKVTVLG
For B8, in assay [1], the binding result was “binds”.

B9: I050B11 (scFv)
scFv: QVQLVQSGVEVKKPGASVKVSCKASGYTFSNHGISWVRQAPGQGLEWVGWISGHDDSTKYAQKFQGRVTMTADTSTSTAYIELRSLKSDDTAVYYCARPFYDTLTSYVFQYFDHWGQGTMVTVSSGGGGSGGGGSGGGGSALETTLTQSPDTLSLSPGERATLSCRASQSVTRGWVAWYQQKPGQAPRLLMYGTSRRATGVPDRFSGSESGTDFTLTISRLEPEDFAVYYCQQYATSPRTFGQGTRLEIKR
On to B9, for which the binding result with TNF-alpha is reported as “no binding”; in the assay with TNF-beta, “no binding”; in assay [2], “binds”; with Fas ligand, “no binding”; in the assay with TRAIL, “no binding”; in assay [3], “binds”.

B10: I008C02 (scFv)
scFv: AVQLQESGPGLVKPSETLSLTCSVSGASMTTNKFYWSWIRQPPGKGLEWIGNINYSKSTNYNPSLKSRITISVDTSKNQLSLKLNSVTAADTAVYYCARHVRDYDILTGYYRGHYFDYWGQGTMVTVSSGGGGSGGGGSGGGGSQSVLTQPASVSGSPGQSITISCTGTSSDVGGYNYVSWYQQHPGKAPKLMIYEGSKRPSGVSNRFSGSKSGNTASLTISGLQAEDEADYYCSSYTTRSTRVFGGGTKLTVLG
Regarding B10, the binding result in assay [1] is “binds”.

B11: I061H01 (scFv)
scFv: QVQLVQSGGGLVKPGGSLRLSCAASGFTFSNAWMSWVRQAPGKGLQWVGRIKSKTDGGTTDYAAPVKGRFTISRDDSKNTLYLQMNSLKTEDTAVYYCTTFNPTYDILTGYYIGGYFQHWGQGTMVTVSSGGGGSGGGGSGGGGSQSVLTQPASVSGSPGQSITISCTGTSSDVGGYNYVSWYQQHPGKAPKLMIYEGSKRPSGVSNRFSGSKSGNTASLTISGLQAEDEADYYCSSYTTRSTRVFGGGTQLTVLG
notes: also called 1061H01
Regarding B11, the binding result in assay [1] is “binds”.

B12: I028A06 (scFv)
scFv: QVQLVESGGGLIQPGGSLRLSCAASGFSFGSYAMSWIRQAPGKGLEWVSTSTGRGGSTYYADSVKGRFTISRDNAKNSLYLQMNSLRAEDAAVYYCARGGDYDILTGLYYYGMDVWGKGTMVTVSSGGGGSGGGGSGGGGSSYVLTQPPSVSGTPGQRVTISCSGGRSNIGSNTVKWYQQLPGTAPKLLIYGNDQRPSGVPDRFSGSKSGTSASLAITGVQAEDEADYYCQSYDSSLRGSRVFGTGTKVTVLG
For the molecule B12, the binding result in assay [1] is “binds”.

B13: I018C02 (scFv)
scFv: QVQLQQSGSELKKPGASVIVSCKVSGYSLTKMSMHWVRQSPGEGLEWVGGIDPETRQPVYAQKFQGRVTITKDTSASAAYMELSSLGSEDTALYYCARATYDPLTGYSFDGFDIWGQGTLVTVSSGGGGSGGGGSGGGGSQSVLTQPASVSGSPGQSITISCTGTSSDVGGYNYVSWYQQHPGKAPKLMIYEGSKRPSGVSNRFSGSKSGNTASLTISGLQAEDEADYYCSSYTTRSTRVFGGGTKLTVLG
For the molecule B13, the binding result in assay [1] is reported as “binds”.

B14: I022E02 (scFv)
scFv: QVQLVQSGAEVKKPGASVMVSCKASGYTFSTYAVHWVRQAPGQGLEWMGRINAGNGYTKYSQKFQGRVTITKDTSASAAYMELSSLGSEDTALYYCARATYDPLTGYSFDGLDIWGKGTMVTVSSGGGGSGGGGSGGGGSQSVLTQPASVSGSPGQSITISCTGTSSDVGGYNYVSWYQQHPGKAPKLMIYEGSKRPSGVSNRFSGSKSGNTASLTISGLQAEDEADYYCSSYTTRSTRVFGGGTKLTVLG
On to B14, for which the binding result in assay [1] is reported as “binds”.
